Assay results: patent publication US20200199204A1

What was measured:
Experiment in all cases: cell-based or functional assay
[1] = biological target: HIV-1 Env of ZM233.6 (HIV-1)
[2] = biological target: HIV-1 Env of THRO.18 (HIV-1)
[3] = biological target: HIV-1 Env of PVO.04 (HIV-1)
[4] = biological target: HIV-1 Env of TRJO.58 (HIV-1)
[5] = biological target: HIV-1 Env of CAP244.D3 (HIV-1)
[6] = biological target: HIV-1 Env of WITO.33 (HIV-1)
[7] = biological target: HIV-1 Env of Q168.a2 (HIV-1)
[8] = biological target: HIV-1 Env of SC422.8 (HIV-1)
[9] = biological target: HIV-1 Env of UG037.8 (HIV-1)
[10] = biological target: HIV-1 Env of CAP256.PI (HIV-1)
[11] = biological target: HIV-1 Env of DU172.17 (HIV-1)
[12] = biological target: HIV-1 Env of 96ZM651.02 (HIV-1)
[13] = biological target: HIV-1 Env of 3016.V5.c36 (HIV-1)
[14] = biological target: HIV-1 Env of KER2008.12 (HIV-1)
[15] = biological target: HIV-1 Env of CM244.ec1 (HIV-1)
[16] = biological target: HIV-1 Env of 6535.3 (HIV-1)
[17] = biological target: HIV-1 Env of CAAN.A2 (HIV-1)
[18] = biological target: HIV-1 Env of Q769.d22 (HIV-1)
[19] = biological target: HIV-1 Env of ZM53.12 (HIV-1)
[20] = biological target: HIV-1 Env of 6405.v4.c34 (HIV-1)
[21] = biological target: HIV-1 Env of QH0692.42 (HIV-1)
[22] = biological target: HIV-1 Env of 0260.v5.c36 (HIV-1)
[23] = biological target: HIV-1 Env of RW020.2 (HIV-1)
[24] = biological target: HIV-1 Env of KER2018.11 (HIV-1)
[25] = biological target: HIV-1 Env of Q842.d12 (HIV-1)
[26] = biological target: HIV-1 Env of Q23.17 (HIV-1)
[27] = biological target: HIV-1 Env of MB201 (HIV-1)
[28] = biological target: HIV-1 Env of TRO.11 (HIV-1)
[29] = biological target: HIV-1 Env of TH976.17 (HIV-1)
[30] = biological target: HIV-1 Env of ZM197.7 (HIV-1)
[31] = biological target: HIV-1 Env of CAP210.E8 (HIV-1)
[32] = biological target: HIV-1 Env of 191821.E6.1 (HIV-1)
[33] = biological target: HIV-1 Env of C1080.c3 (HIV-1)
[34] = biological target: HIV-1 Env of CAP45.G3 (HIV-1)
[35] = biological target: HIV-1 Env of REJO.67 (HIV-1)
[36] = biological target: HIV-1 Env of DU422.01 (HIV-1)
[37] = biological target: HIV-1 Env of CAP256.SU (HIV-1)
[38] = biological target: HIV-1 Env of ZM109.4 (HIV-1)
[39] = biological target: HIV-1 Env of ZM249.1 (HIV-1)
[40] = biological target: HIV-1 Env of ZM135.10a (HIV-1)
[41] = biological target: HIV-1 Env of AC10.29 (HIV-1)
[42] = biological target: HIV-1 Env of ZM214.15 (HIV-1)
[43] = biological target: HIV-1 Env of DU156.12 (HIV-1)
[44] = biological target: HIV-1 Env of MB539.2B7 (HIV-1)
[45] = biological target: HIV-1 Env of BG505.w6m (HIV-1)
[46] = biological target: HIV-1 Env of RHPA.7 (HIV-1)
[47] = biological target: HIV-1 Env of CNE3 (HIV-1)
[48] = biological target: HIV-1 Env of Q461.e2 (HIV-1)
[49] = biological target: HIV-1 Env of Q259.d2.17 (HIV-1)

CAP256-VRC26.22 (antibody)
IC50 [1]: 0.001 µg/mL | IC50 [2]: > 50 µg/mL | IC50 [3]: 9.03 µg/mL | IC50 [4]: > 50 µg/mL | IC50 [5]: > 50 µg/mL | IC50 [6]: > 50 µg/mL | IC50 [7]: 0.007 µg/mL | IC50 [8]: > 50 µg/mL | IC50 [9]: > 50 µg/mL | IC50 [10]: > 50 µg/mL | IC50 [11]: > 50 µg/mL | IC50 [12]: > 50 µg/mL | IC50 [13]: 0.022 µg/mL | IC50 [14]: 1.23 µg/mL | IC50 [15]: 4.54 µg/mL | IC50 [16]: > 50 µg/mL | IC50 [17]: > 50 µg/mL | IC50 [18]: > 50 µg/mL | IC50 [19]: 0.002 µg/mL | IC50 [20]: > 50 µg/mL | IC50 [21]: > 50 µg/mL | IC50 [22]: > 50 µg/mL | IC50 [23]: > 50 µg/mL | IC50 [24]: 0.002 µg/mL | IC50 [25]: 0.63 µg/mL | IC50 [26]: 0.006 µg/mL | IC50 [27]: > 50 µg/mL | IC50 [28]: > 50 µg/mL | IC50 (neutralization, TZM-bl) [29]: > 50 µg/mL | IC50 [30]: 0.09 µg/mL | IC50 [31]: 0.003 µg/mL | IC50 [32]: 2.12 µg/mL | IC50 [33]: 0.013 µg/mL | IC50 [34]: 1.4 µg/mL | IC50 [35]: > 50 µg/mL | IC50 [36]: 0.012 µg/mL | IC50 [37]: 0.002 µg/mL | IC50 [38]: > 50 µg/mL | IC50 [39]: 0.13 µg/mL | IC50 [40]: > 50 µg/mL | IC50 [41]: > 50 µg/mL | IC50 [42]: > 50 µg/mL | IC50 [43]: 0.15 µg/mL | IC50 [44]: 17.9 µg/mL | IC50 [45]: 0.035 µg/mL | IC50 [46]: > 50 µg/mL | IC50 (neutralization, TZM-bl) [47]: > 50 µg/mL | IC50 [48]: 4.1 µg/mL | IC50 [49]: 0.005 µg/mL

CAP256-VRC26.18 (antibody)
IC50 [1]: 0.037 µg/mL | IC50 [2]: > 50 µg/mL | IC50 [3]: > 50 µg/mL | IC50 [4]: > 50 µg/mL | IC50 [5]: > 50 µg/mL | IC50 [6]: > 50 µg/mL | IC50 [7]: > 50 µg/mL | IC50 [8]: > 50 µg/mL | IC50 [9]: > 50 µg/mL | IC50 [10]: > 50 µg/mL | IC50 [11]: > 50 µg/mL | IC50 [12]: > 50 µg/mL | IC50 [13]: 0.028 µg/mL | IC50 [14]: > 50 µg/mL | IC50 [15]: 1.42 µg/mL | IC50 [16]: > 50 µg/mL | IC50 [17]: > 50 µg/mL | IC50 [18]: > 50 µg/mL | IC50 [19]: 0.01 µg/mL | IC50 [20]: > 50 µg/mL | IC50 [21]: > 50 µg/mL | IC50 [22]: > 50 µg/mL | IC50 [23]: > 50 µg/mL | IC50 [24]: 0.03 µg/mL | IC50 [25]: > 50 µg/mL | IC50 [26]: 35 µg/mL | IC50 [27]: > 50 µg/mL | IC50 [28]: > 50 µg/mL | IC50 [29]: > 50 µg/mL | IC50 [30]: 1.89 µg/mL | IC50 [31]: 0.019 µg/mL | IC50 [32]: 10.4 µg/mL | IC50 [33]: 2.15 µg/mL | IC50 [34]: > 50 µg/mL | IC50 [35]: > 50 µg/mL | IC50 [36]: 5.4 µg/mL | IC50 [37]: 0.008 µg/mL | IC50 [38]: > 50 µg/mL | IC50 [39]: > 50 µg/mL | IC50 [40]: > 50 µg/mL | IC50 [41]: > 50 µg/mL | IC50 [42]: > 50 µg/mL | IC50 [43]: > 50 µg/mL | IC50 [44]: > 50 µg/mL | IC50 [45]: 1.9 µg/mL | IC50 [46]: > 50 µg/mL | IC50 [47]: > 50 µg/mL | IC50 [48]: > 50 µg/mL | IC50 [49]: 5.31 µg/mL
